The results in this text go back to patent publication US20040258695A1, “Transferrin binding peptides and uses thereof” (priority 2003, published 2004).

In assay [1] the test system is TbpB N-lobe from M. catarrhalis 4223 (Mbp fusion truncations). Kind of assay: hTf C-lobe overlapping peptide library probed with HRP-labeled TbpB N-lobe truncations (chemiluminescence). In kind it is binding, Moraxella catarrhalis. The following applies: for Binding By Truncations, Segments Included 1: TbpB N-lobe segment 1; for Binding By Truncations, Segments Included 1-2: TbpB N-lobe segments 1-2. From the text:
(§1) Generation of the overlapping peptide libraries representing human transferrin or the TbpB N-lobe regions from different bacteria was by the ‘SPOTSCAN’ method (Genosys Biotechnologies) (13). Essentially the library consisted of linear peptides 15 amino acids in length that were immobilized onto a cellulose membrane using 9-flurorenylmethoxycarbonyl (Fmoc) amino acid-based synthesis. One membrane was used to generate a library of the C-lobe of hTf consisting of ninety-six 15 amino acid peptides with an 11 amino acid overlap. The overlapping hTf peptide represented amino acids 285 to 679 of the intact hTf protein (accession # NP_001054). The first peptide library representing TbpB N-lobe from M. catarrhalis 4223 (accession #AAC34277) consisted of thirty-two 15 amino acid peptides with a 4 amino acid overlap and included N-lobe amino acids 12-421. The amino acid numbers refer to the amino acids in the predicted mature, processed protein (i.e. the N-terminal cysteine is amino acid 1). The second peptide library representing M. catarrhalis 4223 TbpB N-lobe peptides included amino acids 27-421 but with an 11 amino acid overlap.
TbpB truncations were generated by PCR-based cloning into the pMal expression system (New England BioLabs) as described previously (33). Essentially, amplified tbpB gene segments were subcloned into the pMal-c2 expression vector to generate an in frame fusion with the malE gene. Intact Moraxella catarrhalis 4223 TbpB consisted of amino acids 3-680 where 1 represents the N-terminal cysteine of the mature processed protein. Amino acids 1 and 2 from the mature protein were removed to ease cloning and subsequent expression. The N-terminal half of this gene consisted of amino acids 3 to 421. The truncated TbpB proteins were expressed as maltose binding protein fusions in E. coli ER2507 or ER2508 (for segments 1 and 1-2) and purified by amylose affinity chromatography.
(§2) Two different methods for labeling proteins for library screening were used. Iron loaded human Tf (Sigma) was labeled by chemical cross-linking (using 3-maleimidobenzoic acid-N-hydroxysuccinimide ester) to a beta-galactosidase (β-gal) reporter enzyme as described elsewhere (18). This was used as a probe for calorimetric detection on the composite peptide library. The second method involved conjugating the truncations of the N-lobe of TbpB from M. catarrhalis 4223 to horseradish peroxidase (HRP). HRP conjugated proteins can be detected by chemiluminescence, providing a much more sensitive screen. The truncations were conjugated to HRP using the Linx HRP Rapid Protein Conjugation Kit (Invitrogen). These labeled fusion proteins were then used as a probe for chemiluminescent detection.
For increased sensitivity, the TbpB N-lobe truncations from M. catarrhalis were conjugated to HRP for production and detection of chemiluminescent product. The membrane was rinsed with methanol and washed with 3 changes (5 minutes each) of TBS (0.137 M NaCl, 2.68 mM KCl, 50.4 mM Tris-Base, pH=8.0) on a rocking platform. The membrane was blocked by rocking at room temperature in blocking solution consisting of 20 ml of 0.5% Skim milk powder (BioRad) in TBS for 2.5 hours. The membrane was washed with T-TBS 3 times before being incubated with one of the HRP conjugated truncations diluted 1:1000 in skim milk blocking solution for 4 hours at room temperature. The membrane was then washed again 3 times with T-TBS, drained and incubated with 10 ml of Lumiglo mixture (Kirkegaard and Perry Laboratories) for 5 minutes. It was then exposed to X-omat Blue XB-1 X-Ray film (Kodak) for at least 30 seconds before developing. Positive peptides show up as dark spots on a light background.
To plan the truncation experiments, the N-lobe of M. catarrhalis was divided into seven segments with the identified binding peptides at their junctions. […]

The target in a further assay is T1, human transferrin (hTf) (Homo sapiens, UniProt P02787).
T1 construct: purchased Sigma
Kind of assay: First M. catarrhalis TbpB N-lobe overlapping peptide library screened with β-galactosidase conjugated hTf (colorimetric). The settings on record: 15 mer peptides with 4-amino acid overlap. In kind it is binding.
Excerpt: as §1, §2
Binding experiments of hTf to the first peptide library was by the calorimetric method (Genosys Biotechnologies). Essentially hTf in blocking solution (10% Blocking buffer (Genosys Biotechnologies), 50 mg/ml sucrose, T-TBS, (0.137 M NaCl, 2.68 mM KCl, 50.4 mM Tris-Base, 0.05% Tween-20, pH8.0) was incubated with the membrane containing the peptide library for 4 hours at room temperature. The membrane was then washed sequentially in T-TBS and PBS before detection of bound beta-galactosidase using 5-bromo-4-chloro-3-indoyl-β-D-galactopyranoside (X-gal). Positive binding was determined by the development of a blue spot.
Initially, an overlapping peptide library representing the TbpB N-lobe of M. catarrhalis was prepared and probed for binding to labeled hTf. This library was comprised of thirty-two 15 mer peptides with a 4-amino acid overlap representing amino acids 12-421 of the mature M. catarrhalis TbpB. The library was screened for binding to β-galactosidase (β-gal) conjugated hTf (β-gal-hTf ) and a number of positive-binding peptides were detected with varying intensity of colored product.

Assay [2] deals with T2, human transferrin (hTf), iron loaded (human, UniProt P02787 20-698).
T2 construct: Used as a labelled probe (beta-gal conjugate for library 1, HRP conjugate for library 2 and the solid-phase assay); also called β-gal-hTf; HRP conjugated hTf
As to the kind of experiment: SPOT peptide library 1 of TbpB N-lobe probed with beta-gal-hTf, colorimetric.

Another assay deals with T3, β-galactosidase alone (UniProt P00722 2-1024 = β-galactosidase).
T3 construct: Negative control probe for library 1; also called beta-galactosidase
Kind of assay: SPOT peptide library 1 probed with beta-galactosidase alone, colorimetric.

Assay [3] has as its target T2, human transferrin (hTf), iron loaded. As to the kind of experiment: TbpB overlapping peptide library probed with labelled hTf as in Example 1.

T1 sequence (P02787 20-698): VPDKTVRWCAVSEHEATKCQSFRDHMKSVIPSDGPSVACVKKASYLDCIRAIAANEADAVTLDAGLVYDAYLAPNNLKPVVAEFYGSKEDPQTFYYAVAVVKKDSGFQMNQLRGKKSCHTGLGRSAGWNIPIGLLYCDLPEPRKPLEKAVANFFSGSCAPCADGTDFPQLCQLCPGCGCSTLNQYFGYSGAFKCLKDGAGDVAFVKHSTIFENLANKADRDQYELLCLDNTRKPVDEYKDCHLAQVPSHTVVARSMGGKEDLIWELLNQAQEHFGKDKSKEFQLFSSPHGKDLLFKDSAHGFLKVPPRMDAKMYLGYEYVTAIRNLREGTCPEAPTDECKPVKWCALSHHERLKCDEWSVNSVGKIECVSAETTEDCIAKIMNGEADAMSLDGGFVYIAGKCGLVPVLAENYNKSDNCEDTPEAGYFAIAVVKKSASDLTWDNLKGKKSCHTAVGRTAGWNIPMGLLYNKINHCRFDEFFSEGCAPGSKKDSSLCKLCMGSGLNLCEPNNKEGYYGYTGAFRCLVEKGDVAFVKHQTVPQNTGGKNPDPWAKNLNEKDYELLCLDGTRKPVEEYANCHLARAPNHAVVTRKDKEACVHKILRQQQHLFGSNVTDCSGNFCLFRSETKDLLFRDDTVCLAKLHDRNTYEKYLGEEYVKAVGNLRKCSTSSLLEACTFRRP
T2 sequence (P02787 20-698 limits assumed): as the sequence (P02787 20-698) above
T3 sequence (P00722 2-1024 limits assumed): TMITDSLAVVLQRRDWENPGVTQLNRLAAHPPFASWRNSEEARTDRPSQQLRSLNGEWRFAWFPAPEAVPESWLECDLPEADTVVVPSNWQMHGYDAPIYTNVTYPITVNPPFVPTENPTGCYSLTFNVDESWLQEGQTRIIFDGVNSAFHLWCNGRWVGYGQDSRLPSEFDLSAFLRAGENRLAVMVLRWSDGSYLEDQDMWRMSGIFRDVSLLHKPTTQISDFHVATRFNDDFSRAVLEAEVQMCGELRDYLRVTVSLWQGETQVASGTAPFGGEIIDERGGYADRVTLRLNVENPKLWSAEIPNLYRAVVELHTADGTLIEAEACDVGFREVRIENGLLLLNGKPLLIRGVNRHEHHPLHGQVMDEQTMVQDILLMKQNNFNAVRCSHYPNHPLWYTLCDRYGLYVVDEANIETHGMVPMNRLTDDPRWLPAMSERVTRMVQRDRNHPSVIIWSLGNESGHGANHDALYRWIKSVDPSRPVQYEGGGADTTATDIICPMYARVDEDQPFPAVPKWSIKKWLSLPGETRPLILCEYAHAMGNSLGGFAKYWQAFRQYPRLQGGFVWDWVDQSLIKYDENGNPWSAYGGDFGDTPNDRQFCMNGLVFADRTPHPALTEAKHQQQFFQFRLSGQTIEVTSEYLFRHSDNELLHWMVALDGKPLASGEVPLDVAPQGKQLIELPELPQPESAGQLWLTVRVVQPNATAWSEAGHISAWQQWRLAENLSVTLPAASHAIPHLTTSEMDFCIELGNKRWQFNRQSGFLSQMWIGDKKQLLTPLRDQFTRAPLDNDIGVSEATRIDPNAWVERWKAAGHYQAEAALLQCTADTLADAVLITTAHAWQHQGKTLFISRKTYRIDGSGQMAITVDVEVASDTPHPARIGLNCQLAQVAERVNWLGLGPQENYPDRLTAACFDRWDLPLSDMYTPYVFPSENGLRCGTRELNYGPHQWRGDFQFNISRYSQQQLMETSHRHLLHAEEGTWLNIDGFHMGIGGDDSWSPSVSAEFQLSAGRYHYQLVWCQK

As for tdcsgnfclfrsetk [Peptide 46], in assay [1] (listed as 19 (brown)), the “Binding By Truncations, Segments Included 1” value was “loss of binding”. Take “kylgeeyvkavgnlr (KYLGEEYVKAVGNLR; listed as Homo sapiens) [Peptide 47, hTf C-lobe library peptide, tail (Cyan)]”: the “Binding By Truncations, Segments Included 1-6” value in assay [1] (TbpB N-lobe segments 1-6, listed as 20 (Cyan)) is “bound all of the peptides except the one”.

Regarding “fsnlqdrhkgnvtkt (FSNLQDRHKGNVTKT; M. catarrhalis) [Peptide 90]”, in the assay with human transferrin (hTf), the “binding to β-gal-hTf, intensity of colored product” value (“binding to β-gal-hTf, intensity” for short) was “strongly positive”. Take “agwyygasskdeynr (AGWYYGASSKDEYNR; M. catarrhalis) [Peptide 85]”: the “binding to β-gal-hTf, intensity” value with human transferrin (hTf) was “weakly positive”. With gsnvtdcsgnfclfr [Peptide 45], in assay [1] (listed as 18 (brown)), the “Binding By Truncations, Segments Included 1” value is “loss of binding”. As to “fmtdvanrrnrfsev (FMTDVANRRNRFSEV; M. catarrhalis) [Peptide 83]”, the “binding to β-gal-hTf, intensity” value with human transferrin (hTf) is given as “moderately positive”.

In the case of chlarapnhavvtrk [Peptide 44], the “Binding By Truncations, Segments Included 1-5” value in assay [1] (TbpB N-lobe segments 1-5, listed as 16 (yellow)) is recorded as “lost reactivity”. Regarding “lcmgsglnlcepnnk (LCMGSGLNLCEPNNK; listed as Homo sapiens) [Peptide 42, hTf C-lobe library peptide, domain 2 (Red)]”, the “Binding By Truncations, Segments Included 1-2” value in assay [1] (listed as 14 (red)) was “lost reactivity”. “nipmgllynkinhcr (NIPMGLLYNKINHCR; listed as Homo sapiens) [Peptide 41, hTf C-lobe library peptide, domain 2 (Blue)]”: the “Binding By Truncations, Segments Included 1-4” value in assay [1] (TbpB N-lobe segments 1-4, listed as 13 (Blue)) is “lost reactivity”. In the case of “gpvggvfyngtttak (GPVGGVFYNGTTTAK; M. catarrhalis) [Peptide 80]”, the “binding to β-gal-hTf, intensity” value in the assay with human transferrin (hTf) is reported as “strongly positive”. Take “kksasdltwdnlkgk (KKSASDLTWDNLKGK; listed as Homo sapiens) [Peptide 40, hTf C-lobe library peptide, domain 2 (Green)]”: in assay [1] (TbpB N-lobe segments 1-3, listed as 12 (green)), the “Binding By Truncations, Segments Included 1-3” value is reported as “lost reactivity”. Regarding “gyygytgafrclvek (GYYGYTGAFRCLVEK; listed as Homo sapiens) [Peptide 43, hTf C-lobe library peptide, domain 2 (Red)]”, in assay [1] (listed as 15 (red)), the “Binding By Truncations, Segments Included 1-2” value is given as “lost reactivity”. Take “mgygmalskinlhnr (MGYGMALSKINLHNR; M. catarrhalis) [Peptide 65]”: the “binding to β-gal-hTf, intensity” value with human transferrin (hTf) is “moderately positive”. For the molecule “danihgnrfrgsata (DANIHGNRFRGSATA; M. catarrhalis) [Peptide 92]”, in the assay with human transferrin (hTf), the “binding to β-gal-hTf, intensity” value was “strongly positive”.

B1: M. catarrhalis TbpB N-lobe peptide agwyygasskdeynr (peptide)
peptide: AGWYYGASSKDEYNR
notes: SPOT peptide immobilised on cellulose membrane; also called spot #85
For B1, the binding result in assay [2] is on record as “binds”; with β-galactosidase alone it was “no binding”.

B2: M. catarrhalis TbpB N-lobe peptide fmtdvanrrnrfsev (peptide)
peptide: FMTDVANRRNRFSEV
notes: SPOT peptide immobilised on cellulose membrane; also called spot #83
Regarding B2, the binding result in assay [2] is on record as “binds”; with β-galactosidase alone, “no binding”.

B3: M. catarrhalis TbpB N-lobe peptide gpvggvfyngtttak (peptide)
peptide: GPVGGVFYNGTTTAK
notes: SPOT peptide immobilised on cellulose membrane; also called spot #80
Turning to B3, the values for the binding result (in assay [2]; with β-galactosidase alone) were “binds” and “no binding”, respectively.

B4: M. catarrhalis TbpB N-lobe peptide fsnlqdrhkgnvtkt (peptide)
peptide: FSNLQDRHKGNVTKT
notes: SPOT peptide immobilised on cellulose membrane; also called spot #90
B4: the binding result in assay [2] was “binds”; with β-galactosidase alone, “no binding”.

B5: N. meningitidis TbpB peptide PSRQLPASGKVIYKG (peptide)
peptide: PSRQLPASGKVIYKG
notes: library peptide
In the case of B5, the binding result in assay [3] is recorded as “binds”.

B6: N. meningitidis TbpB peptide VIYKGVWHFVTDTKK (peptide)
peptide: VIYKGVWHFVTDTKK
notes: library peptide
With B6, in assay [3], the binding result is recorded as “binds”.

B7: M. catarrhalis TbpB N-lobe peptide mgygmalskinlhnr (peptide)
peptide: MGYGMALSKINLHNR
notes: SPOT peptide immobilised on cellulose membrane; also called spot #65
As to B7, the binding result in assay [2] is recorded as “binds”; with β-galactosidase alone, “no binding”.

B8: M. catarrhalis TbpB N-lobe peptide danihgnrfrgsata (peptide)
peptide: DANIHGNRFRGSATA
notes: SPOT peptide immobilised on cellulose membrane; also called spot #92
As to B8, the results for the binding result (in assay [2]; with β-galactosidase alone) were “binds” and “no binding”, respectively.

B9: N. meningitidis TbpB peptide FYKHAASEKDFSNKK (peptide)
peptide: FYKHAASEKDFSNKK
notes: library peptide
Take B9: the binding result in assay [3] is “binds”.
